Results from PMC314469, “Protein Interaction Networks by Proteome Peptide Scanning” (PLoS Biology, 2004).

Columns and labels:
[1] = target: T1, amphyphisin SH3 (AMPH_HUMAN), P49418; test: SPOT array
T1 chain: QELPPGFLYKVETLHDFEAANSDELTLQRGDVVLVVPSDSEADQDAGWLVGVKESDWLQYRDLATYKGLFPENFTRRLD

[2] = target: endophilin SH3 (SH3G2_HUMAN), Q99962; test: SPOT array

Binder | normalised SPOT signal, Boehringer light units (BLU); mean over the file's lines of this peptide [1] | normalised SPOT signal, Boehringer light units (BLU); mean over the file's lines of this peptide [2]
EPGLPVRPPGGGQS [O95954 457-471] | 374 | 59.4
EPPAPRRPASLAQR [Q9NP57 254-267] | 37.1 | 831
EPPPPQKPPPPNSK [Q03111 455-469] | 44.4 | 2240
EQFKIKRPAAWVDL [O43301 404-417] | 4.3 | 0
EQGSLKRPVSRKVG [O15021 1020-1033] | 47.3 | 86.4
EQGGLLRPERDHVE [Q9ULV5 88-101] | 79.3 | 66.9
EQKRPLRPRRKGRK [Q9P2K1 987-1000] | 11900 | 1010
EQPPPGRPPLRLED [Q9Y334 62-76] | 33.6 | 92.4
EQRPLKRPRLGPPD [Q96PC8 10-23] | 31 | 446
AGPRPRRPGSLPGW [Q14333 377-390] | 203 | 805
EQVDLIRPWRRLLE [Q9NU22 852-865] | 131 | 147
EQYIPSRPLKTQEL [Q9Y259 145-158] | 32.2 | 159
ERDFLKRPLESYVK [Q10472 159-172] | 42.3 | 4.5
EREALKRPMGPVHY [Q9P0R4 128-141] | 11.6 | 50.5
EREFLERPSRDHLY [Q12968 137-150] | 334 | 108
ERPPPFKPPPPPIK [P40200 535-549] | 92.2 | 2690

Binder | normalised SPOT signal, Boehringer light units (BLU); mean over the file's lines of this peptide [1] | normalised SPOT signal, Boehringer light units (BLU); mean over the file's lines of this peptide [2]
ESGRPIKPPRKDLP [P25440 318-332] | 8960 | 1950
ESPLPRRPPRAARS [P81408 388-402] | 23200 | 8150
ESPPPKRPRIAYLS [P36508 395-408] | 39.3 | 332
ESQSPKRPPEDFET [Q16632 163-177] | 42 | 49.5
AGSDPKRPEMPSKK [P23470 686-699] | 23.2 | 66.5
ESRDITRPSRPADL [Q9Y6Z1 10-23] | 192 | 134
ESRDITRPSRPASY [O60298 756-769] | 539 | 192
ESSGPPRPSRGPAA [Q9UHD9 6-19] | 2690 | 295
ESSRPVKPPKKDVP [O60885 322-336] | 52.8 | 96.9
ETGALRRPQLLPLL [O60896 2-15] | 39.4 | 127
ETISPLRPQRPKSQ [Q14185 1731-1744] | 4090 | 220
ETLTFKRPEGMHRE [Q9NPF5 43-56] | 29.5 | 0
ETMYLRRPEGIERQ [Q9H5V9 75-88] | 20.5 | 128
ETNIPQRPSRPARR [Q9HBL3 239-252] | 20700 | 1800
ETSGPERPPEKPRK [O75408 12-26] | 38.5 | 926
